Source: paper doi:10.1101/679134

Test system: CsrA-2 (rCsrA-2) (Coxiella burnetii)
Assay: EMSA
Conditions: 30 min 37 C, pH not stated

## CbsR12
  Kd: 130 nM
